Among the data in PMC10539048 are percent reduction of actin-binding activity relative to WT values, retold here.

The assay has as its target filamentous actin polymerized from human platelet actin (human) (UniProt P60709). The assay can be described thus: co-sedimentation.

Consider “human MAP2C T293E (from UniProt P11137-2 1-471) (natural protein)”, for which the percent reduction of actin-binding activity relative to WT came to 43%.

In turn, “human MAP2C T300E (from UniProt P11137-2 1-471) (natural protein)” came in with a percent reduction of actin-binding activity relative to WT of 43%.
